From PMC10978848, “Insights into the dual nature of αB-crystallin chaperone activity from the p.P39L mutant at the N-terminal region” (Scientific Reports, 2024)
Where a chain is given by its changes, count along the chain named. Numbers in names are those of the source.

B1: human αB-crystallin, wild-type (natural protein, UniProt P02511 1-175, looked up)
chain: MDIAIHHPWIRRPFFPFHSPSRLFDQFFGEHLLESDLFPTSTSLSPFYLRPPSFLRAPSWFDTGLSEMRLEKDRFSVNLDVKHFSPEELKVKVLGDVIEVHGKHEERQDEHGFISREFHRKYRIPADVDPLTITSSLSSDGVLTVNGPRKQVSGPERTIPITREEKPAVTAAPKK
notes: human αB-crystallin (CRYAB, HspB5); It names no tag; also called CRYAB; HspB5; source: E. coli, IPTG-induced, purified (anion exchange, DEAE cellulose); copies: 24
B2: human αB-crystallin p.P39L mutant (natural protein, UniProt P02511 1-175, looked up)
chain: B1 chain with P39L
notes: human αB-crystallin (CRYAB, HspB5) with the variant p.P39L, which was found in a patient; It names no tag; also called p.P39L αB-Cry; mutant αB-Cry; source: E. coli, IPTG-induced, purified (anion exchange, DEAE cellulose); copies: 48

Biological target: the molecule itself
Experiment: AUC; sedimentation velocity, 40,000 rpm, 20 °C, absorbance at 280 nm, buffer A (50 mM sodium phosphate, pH 7.4); masses from c(M) after Schuck; size of the oligomer

Row | Protein | stoichiometry N
1 | B1 | 24 subunits
2 | B2 | 48 subunits
